Experimental data as given in patent publication US20260209387A1, “SINGLE-DOMAIN ANTIBODY FOR INHIBITION OF NEUTROPHIL ELASTASE ACTIVITY” (UNIVERSITE DE LIEGE, priority 2023, published 2026).

What was measured:
[1] = Physical stress (nebulization, agitation, freeze/thaw): concentration by A280 nm before/after centrifugation; format: physicochemical; details: for Initial concentration percentage after centrifugation: 10 000 g 10 min
Experimental: A 0.25 mg/ml solution of NbE201, NbE201-PEG10 or NbE201-PEG40 was prepared and divided in order to apply the following conditions: control, 1 or 4 h of agitation with a magnetic bar, nebulization, 5 or 10 freeze/thaw cycles.
2.3.1 Stability towards agitation. 100 μl of a 0.25 mg/ml ISVDs solution were agitated in a 1 ml glass vial with a 2×5 mm magnetic bar (VWR, Radnor, USA) at 200 rpm during 1 or 4 hours.
2.3.2 Stability towards Nebulization. 300 μl of a 0.25 mg/ml ISVDs solution were nebulized with a MeSH nebulizer (InnoSpire Go, Phillips, Amsterdam, The Netherlands).
2.3.3 Stability towards freezing/thawing. 100 μl of a 0.25 mg/ml ISVDs solution underwent 5 or 10 freeze/thaw (F/T) cycles. Freezing was performed in a −20° C. freezer and thawing was performed at RT.
2.3.4 Concentration measurements. Concentrations and UV spectra were measured by spectrophotometry (NanoDrop 2000/2000c spectrophotometer, ThermoFisher). Concentrations were determined based on the absorbance at 280 nm. NbE201 and NbE201-Cter mass extinction coefficients applied to the measurements were 1.888 and 1.716 (mg/mL)^−1 cm^−1 respectively. Regarding the ISVDs exposed to physical stresses, the concentration was read before and after centrifugation at 10 000 g at 4° C. for 10 min.

[2] = Aggregates detection by Nanoparticle Tracking Analysis; format: physicochemical; details: after nebulization; for average counted particles per frame (NTA): 0.25 mg/ml
Experimental: 2.3.5 Aggregates Detection. Protein aggregates were visualized by Nanoparticle Tracking Analysis (NTA) (ZetaView, 220 Twin Laser, Particle Metrix, Ammersee, Germany), a technique used for measuring single particle size and concentration. NbE201, NbE201-PEG10 and NbE201-PEG40 solutions (0.25 mg/ml) were analysed before and after nebulization. 11 positions were analysed for which following parameters were used: • Laser wavelength: 488 nm • Scatter, no fluorescence • Sensitivity: 80 • Shutter: 100

[3] = Spray-dried powder: concentration before/after centrifugation; format: physicochemical; details: spray-dried powder solubilized and dialysed; 10 000 g ten minutes
Experimental: (§1) Dry powders for inhalation were formulated with the NbE201 and the NbE201-PEG40. The spray dryer used was the PROCEPT's modular 4M8-Trix.
The integrity of the ISVD within the spray-dried powders was then evaluated after solubilizing the powders into water followed by a dialysis into phosphate buffer (50 mM, pH7). Protein concentration was measured by reading the absorbance at 280 nm before and after centrifugation at 10 000 g for ten minutes in order to detect the presence of insoluble aggregates.

hNE = biological target: T1, hNE (Homo sapiens, UniProt P08246); assay: Spray-dried powder: hNE inhibition after solubilizing; format: biochemical; details: [hNE]:[ISVD] 1:1
T1 construct: purchased Elastin Products Company (EPC)
T1 sequence (P08246 30-247): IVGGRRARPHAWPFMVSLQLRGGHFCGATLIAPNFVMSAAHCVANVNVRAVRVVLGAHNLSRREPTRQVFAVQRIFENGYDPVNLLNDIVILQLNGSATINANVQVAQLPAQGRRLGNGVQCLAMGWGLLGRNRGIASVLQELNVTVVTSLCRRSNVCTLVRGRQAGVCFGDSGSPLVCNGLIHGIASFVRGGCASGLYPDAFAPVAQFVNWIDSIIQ
Experimental: as §1
The inhibitory activity was also assessed after solubilizing the powders. The inhibitory capacity of the Nbs were assessed in an in vitro assay at a [hNE]:[ISVD] ratio of 1:1. The inhibition capacity of the solubilized powders was compared to the inhibition capacity of their respective controls (eg. untreated NbE201 or NbE201-PEG40). […] The protein concentration used to calculate the hNE: ISVD ratio was the concentration read after centrifugation.

[4] = biological target: T2, proteolytic (elastase) activity of cystic fibrosis patient sputa (Homo sapiens, UniProt P08246); assay: Sputum proteolytic activity inhibition, cystic fibrosis sputa; format: biochemical
T2 construct: Sputa from patients with cystic fibrosis, COPD or ciliary diskenisia above 18 years old were collected; from tissue; host or cells: expectorated sputum of patients with cystic fibrosis, COPD or ciliary dyskinesia
T2 sequence (P08246 30-267): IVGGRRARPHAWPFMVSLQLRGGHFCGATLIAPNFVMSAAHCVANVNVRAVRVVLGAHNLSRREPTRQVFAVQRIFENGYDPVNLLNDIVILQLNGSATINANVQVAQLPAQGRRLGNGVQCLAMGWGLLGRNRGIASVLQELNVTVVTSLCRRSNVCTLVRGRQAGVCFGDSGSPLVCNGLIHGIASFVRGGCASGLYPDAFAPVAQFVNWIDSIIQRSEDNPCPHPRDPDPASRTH
Experimental: (§2) 2.2.2 Evaluation of the proteolytic activity inhibition in CF, COPD and ciliary diskenisia sputa. […] Sputa collection procedures were evaluated by the local ethic committee (comité d'Ethique Hospitalo-Facultaire des Cliniques universitaires Saint-Luc) and approved under the Belgian registration number B4032021000071.
(§3) Sputum proteolytic activity was assessed by following with a spectrophotometer the absorbance at 410 nm of suc-Ala-Ala-Pro-Val-pNA degradation, the chromogenic hNE substrate. Sputa were classified as mucoid, muco-purulent or purulent (Serisier et al., 2009, Respir Res, 10 (1): 63. doi: 10.1186/1465-9921-10-6). According to the experiment, 10 to 20 mg of sputum were weighted in a 96-well plate. ISVDs were then added to the sputum samples and pre-incubated at 37° C. during different periods of time. The hNE substrate was diluted to a concentration of 1 mM in a tris buffer (0.1M tris, 0.5M NaCl, 0.01% Sodium azide (NaN3), pH 7.5) and 50 μl of this solution were added to the wells. The substrate degradation was followed during 50 min. […] Slopes were then calculated from the regression line drawn from the absorbance measurements and were expressed as a percentage of the sputum proteolytic activity without ISVDs.

[5] = biological target: T3, proteolytic activity of COPD patient sputum (Homo sapiens, UniProt P08246); assay: Sputum proteolytic activity inhibition, COPD sputum; format: biochemical; details: 15 mg sputum, COPD patient in exacerbation
T3 construct: Sputa from patients with cystic fibrosis, COPD or ciliary diskenisia above 18 years old were collected; from tissue; host or cells: expectorated sputum of patients with cystic fibrosis, COPD or ciliary dyskinesia
T3 sequence (P08246 30-267): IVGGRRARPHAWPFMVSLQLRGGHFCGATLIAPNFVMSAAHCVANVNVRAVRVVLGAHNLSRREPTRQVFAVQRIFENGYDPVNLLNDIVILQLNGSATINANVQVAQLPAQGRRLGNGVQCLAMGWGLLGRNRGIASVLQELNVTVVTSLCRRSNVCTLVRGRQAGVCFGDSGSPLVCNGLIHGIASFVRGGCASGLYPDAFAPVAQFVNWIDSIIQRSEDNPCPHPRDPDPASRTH
Experimental: as §2, §3

[6] = biological target: T4, proteolytic activity of ciliary dyskinesia patient sputum (Homo sapiens, UniProt P08246); assay: Sputum proteolytic activity inhibition, ciliary dyskinesia sputum; format: biochemical; details: 10 mg sputum
T4 construct: Sputa from patients with cystic fibrosis, COPD or ciliary diskenisia above 18 years old were collected; from tissue; host or cells: expectorated sputum of patients with cystic fibrosis, COPD or ciliary dyskinesia
T4 sequence (P08246 30-267): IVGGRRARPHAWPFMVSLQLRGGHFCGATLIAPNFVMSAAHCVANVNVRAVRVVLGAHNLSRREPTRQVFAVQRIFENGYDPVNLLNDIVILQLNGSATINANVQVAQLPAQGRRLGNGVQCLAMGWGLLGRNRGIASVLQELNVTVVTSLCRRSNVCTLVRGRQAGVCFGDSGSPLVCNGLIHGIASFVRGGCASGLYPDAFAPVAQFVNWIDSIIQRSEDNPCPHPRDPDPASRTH
Experimental: as §2, §3

[7] = hNE + Solubilized powder, with aggregates
[8] = hNE + Solubilized powder, without aggregates (after centrifugation)

Molecule | Initial concentration percentage before centrifugation ([1]; Agitation (1 h)) | Initial concentration percentage after centrifugation ([1]; Agitation (1 h)) | Initial concentration percentage before centrifugation ([1]; Agitation (4 h)) | Initial concentration percentage after centrifugation ([1]; Agitation (4 h)) | Initial concentration percentage before centrifugation ([1]; Control) | Initial concentration percentage after centrifugation ([1]; Control) | Initial concentration percentage before centrifugation ([1]; F/T 5x) | Initial concentration percentage after centrifugation ([1]; F/T 5x) | Initial concentration percentage before centrifugation ([1]; F/T 10x) | Initial concentration percentage after centrifugation ([1]; F/T 10x) | Initial concentration percentage before centrifugation ([1]; Nebulization) | Initial concentration percentage after centrifugation ([1]; Nebulization) | average counted particles per frame (NTA) [2] | concentration after centrifugation as % of concentration before centrifugation [3] | hNE Inhibition percentage (hNE; hNE + Control sdAb (untreated)) | hNE Inhibition percentage (hNE; [7]) | hNE Inhibition percentage (hNE; [8]) | inhibitory capacity in COPD sputum [5] | inhibitory capacity in ciliary dyskinesia sputum [6] | also measured
NbE201-PEG40: NbE201-Cter conjugated via C-terminal cysteine to branched 40 kDa PEG-maleimide (conjugate) VHH: QVQLQESGGGLVQAGGSLRLSCVVPGRTISLYRMGWFRQAPGKEREFVAGINWSGDMTDYVDSVKGRFTISRDNAKNTVYLEMNSLKPEDTAIYYCTADPKLLPLADSSYGYWGQGTQVTVSSSPSTPPTPSPSTPPC | 99 ± 1% | 98 ± 1% | 98 ± 1% | 99 ± 1% | 100 ± 0% | 99 ± 1% | 97 ± 2% | 99 ± 1% | 97 ± 2% | 97 ± 3% | 88 ± 3% (****) | 88 ± 3% (****) | far below that threshold | 97±2% | 70 ± 2% | 67 ± 2% | 72 ± 1% | No apparent differences in inhibitory capacity | No apparent differences in inhibitory capacity | sputum proteolytic activity inhibition at time 0, compared with NbE201 ([4]; exposure time 0): No significant difference
NbE201: anti-hNE ISVD (VHH/nanobody) from immunized lama, amino acid sequence SEQ ID NO: 4 (protein) VHH: QVQLQESGGGLVQAGGSLRLSCVVPGRTISLYRMGWFRQAPGKEREFVAGINWSGDMTDYVDSVKGRFTISRDNAKNTVYLEMNSLKPEDTAIYYCTADPKLLPLADSSYGYWGQGTQVTVSS | 93 ± 4% | 54 ± 12% (****) | 77 ± 6% (**) | 27 ± 19% (****) | 100 ± 0% | 100 ± 0% ^ | 96 ± 8% | 85 ± 10% (*) | 103 ± 5% | 75 ± 9% (**) | 73% ± 3% (***) | 31 ± 2% (****) | 228 | 53±3% | 76 ± 1% | 48 ± 5% | 78 ± 2% | No apparent differences in inhibitory capacity | No apparent differences in inhibitory capacity | size of counted particles, percentile 10 [2]: 22.3±12 nm; size of counted particles, percentile 50 [2]: 138±8 nm; size of counted particles, percentile 90 [2]: 342.8±26 nm; inhibition of proteolytic activity in sputum samples ex vivo ([4]; cystic fibrosis sputa): able to inhibit the proteolytic activity in sputum samples ex vivo; sputum inhibition capacity over time ([4]; exposure 0 to 24 h): a loss of inhibitory capacity over time was observed
